We go through seven molecules from patent US20240376168A1 (LETO LABORATORIES, published 2024).

Positions count from the first letter of the chain named. Numbers in names are those of the source.

The chains are these.
B1: FGF21 (Del-P171) mutant 1408 (ligand)
chain: HPIPDSSPLLQFGGQVRQRYLYTDDAQQTEAHLEIREDGTVGGAADQSPESLLQLKALKPGVIQILGVKTSRFLCQRPDGALYGSLHFDPEACSFRELLLEDGYNVYQSEAHGLPLHLPGQKSPHRDPAPRGPARFLPLPGLPPALPEPPGILAPQPPDVGSSDPLSLVGSQGRSPSYAS
B2: FGF21 (170C/Ins-172G/173C) mutant 1409 (ligand)
chain: HPIPDSSPLLQFGGQVRQRYLYTDDAQQTEAHLEIREDGTVGGAADQSPESLLQLKALKPGVIQILGVKTSRFLCQRPDGALYGSLHFDPEACSFRELLLEDGYNVYQSEAHGLPLHLPGQKSPHRDPAPRGPARFLPLPGLPPALPEPPGILAPQPPDVGSSDPLSLVCPGCQGRSPSYAS
modifications: intramolecular disulfide bond between C170 and C173
B3: FGF21 (170C/Ins-172A/173C) mutant 1412 (ligand)
chain: B2 chain with G172A
modifications: disulfide bond introduced between 170C and 173C
notes: A small number of incorrect dimers is reported
B4: FGF21 (170C/Ins-172S/173C) mutant 1413 (ligand)
chain: B2 chain with G172S
modifications: disulfide bond introduced between 170C and 173C
notes: as for B3
B5: FGF21 (121Q, 168L) mutant 1414 (ligand)
chain: HPIPDSSPLLQFGGQVRQRYLYTDDAQQTEAHLEIREDGTVGGAADQSPESLLQLKALKPGVIQILGVKTSRFLCQRPDGALYGSLHFDPEACSFRELLLEDGYNVYQSEAHGLPLHLPGQKSPHRDPAPRGPARFLPLPGLPPALPEPPGILAPQPPDVGSSDPLSLVGPSQGRSPSYAS
notes: Control that stands for wild-type FGF21; An alanine is added before His1 of mature FGF21; also called FGF21 control mutant 1414
B6: FGF21 (170C/173C) mutant 1411 (ligand)
chain: B5 chain with G170C, Q173C
modifications: disulfide bond introduced between 170C and 173C
notes: Only a trace amount of incorrect dimers is reported
B7: FGF21 (P171G) mutant 1407 (ligand)
chain: B5 chain with P171G
notes: also called FGF21 mutant P171G

The first experiment deals with β-Klotho overexpressed on HEK293 cells. The experiment can be described thus: cell-based or functional assay.
For B1, the “Activity in β-Klotho-ERK cells (EC50)” value worked out at 1.48 nM.
The same measure, in the same setting: with B2 the figure was 2.14 nM.
With B3, the “Activity in β-Klotho-ERK cells (EC50)” value came out at 2.52 nM.
B4: the “Activity in β-Klotho-ERK cells (EC50)” value worked out at 2.09 nM.
For B5, the “Activity in β-Klotho-ERK cells (EC50)” value was 0.85 nM.
As for B6, the “Activity in β-Klotho-ERK cells (EC50)” value is 0.999 nM.
On to B7, for which the “Activity in β-Klotho-ERK cells (EC50)” value worked out at 1.15 nM.

A further experiment concerns the target T1, extracellular domain of human receptor β-Klotho with a C-terminal Poly-His tag (human, UniProt Q86Z14 1-996).
T1 construct: extracellular domain; Immobilised on an NTA chip at 1,000 RU; also called human β-Klotho protein; KLB; not shown: Poly-His tag at the C-terminus
T1 sequence (looked up): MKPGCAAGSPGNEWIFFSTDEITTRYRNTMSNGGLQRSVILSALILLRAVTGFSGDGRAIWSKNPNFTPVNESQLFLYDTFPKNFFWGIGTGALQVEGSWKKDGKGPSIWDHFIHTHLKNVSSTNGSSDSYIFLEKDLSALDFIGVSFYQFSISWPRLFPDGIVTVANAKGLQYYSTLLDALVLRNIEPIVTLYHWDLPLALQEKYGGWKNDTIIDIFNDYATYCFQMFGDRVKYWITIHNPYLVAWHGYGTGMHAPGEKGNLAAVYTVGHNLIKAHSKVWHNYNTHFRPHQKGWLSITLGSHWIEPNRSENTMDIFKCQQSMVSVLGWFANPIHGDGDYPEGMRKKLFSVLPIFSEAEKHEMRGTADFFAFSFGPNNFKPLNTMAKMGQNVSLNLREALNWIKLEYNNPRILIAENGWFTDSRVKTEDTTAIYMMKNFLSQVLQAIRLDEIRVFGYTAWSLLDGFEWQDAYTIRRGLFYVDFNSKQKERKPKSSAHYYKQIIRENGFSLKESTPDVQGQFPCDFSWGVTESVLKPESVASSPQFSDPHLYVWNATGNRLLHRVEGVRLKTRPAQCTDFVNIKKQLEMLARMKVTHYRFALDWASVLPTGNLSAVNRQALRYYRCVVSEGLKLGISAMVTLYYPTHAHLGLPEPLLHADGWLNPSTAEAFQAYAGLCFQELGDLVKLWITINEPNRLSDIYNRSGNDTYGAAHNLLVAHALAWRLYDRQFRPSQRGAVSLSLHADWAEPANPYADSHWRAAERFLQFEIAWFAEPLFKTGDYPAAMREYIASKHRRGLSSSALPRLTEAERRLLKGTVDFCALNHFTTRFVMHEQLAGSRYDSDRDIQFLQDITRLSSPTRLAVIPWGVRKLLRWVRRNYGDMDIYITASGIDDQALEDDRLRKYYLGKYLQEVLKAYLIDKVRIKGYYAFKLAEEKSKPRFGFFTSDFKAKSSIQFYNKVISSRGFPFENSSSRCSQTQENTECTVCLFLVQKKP
Kind of experiment: SPR, Biacore-8K; His-tagged β-Klotho ECD on NTA chip, FGF21 mutant as analyte, kinetic fit. As to the method: An extracellular domain of a human receptor β-Klotho (a Poly-His tag was fused at a C-terminus) was expressed and purified in the present disclosure, and a sequence of the protein was acquired from the Uniprot database. An affinity assay was conducted with Biacore-8K. Specifically, a human β-Klotho protein was immobilized on an NTA chip at a fixed amount of 1,000 RU with PBS (including 0.05% Tween-20) as a flow buffer. An FGF21 mutant was allowed to flow through the chip at different concentrations to determine the binding of the FGF21 mutant to β-Klotho. Final data were fitted using kinetics, and a dissociation constant KD was calculated.
The Kd is the constant that tells how readily two partners part at equilibrium. Low readings indicate higher affinity, high ones lower affinity. In turn, B1 gave a Kd of 67.5 nM.
The molecule B2 yielded a Kd of 59.4 nM.
The molecule B3 returned a Kd of 69.9 nM.
B4 yielded a Kd of 64.6 nM.
For B5, the Kd worked out at 51.2 nM.
Turning to B6, the dissociation constant (Kd) was found to be 69.4 nM.
Molecule B7 gave a Kd of 42.5 nM.
